# Test results published in patent US20050182242A1, “Global analysis of protein activities using proteome chips” (priority 2001, published 2005).
# B1: Sqt1p: yeast protein that interacts with Rp110p (protein, UniProt P35184 1-431, looked up)
# Ribosome assembly protein SQT1: MEPQEEFITTEEVEQEIVPTVEVEQDVPVDIEGENDDDDEMMNDDEEALEVDMSNNSLTYFDKHTDSVFAIGHHPNLPLVCTGGGDNLAHLWTSHSQPPKFAGTLTGYGESVISCSFTSEGGFLVTADMSGKVLVHMGQKGGAQWKLASQMQEVEEIVWLKTHPTIARTFAFGATDGSVWCYQINEQDGSLEQLMSGFVHQQDCSMGEFINTDKGENTLELVTCSLDSTIVAWNCFTGQQLFKITQAEIKGLEAPWISLSLAPETLTKGNSGVVACGSNNGLLAVINCNNGGAILHLSTVIELKPEQDELDASIESISWSSKFSLMAIGLVCGEILLYDTSAWRVRHKFVLEDSVTKLMFDNDDLFASCINGKVYQFNARTGQEKFVCVGHNMGVLDFILLHPVANTGTEQKRKVITAGDEGVSLVFEVPN
# B2: Cdc1p: yeast DNA-repair protein (protein, UniProt P40986 1-491, looked up)
# Cell division control protein …: MVYRNRSKSVLSTHSKKSDDKAHYKSRSKKKSKSRSKKRLRIYWRYISIVWILWLGLISYYESVVVKRAMKKCQWSTWEDWPEGAESHRVGLFADPQIMDEYSYPGRPQIVNYFTRVIVDHYHRRNWKYVQYYLDPDSNFFLGDLFDGGRNWDDKQWIKEYTRFNQIFPKKPLRRTVMSLPGNHDIGFGDTVVESSLQRFSSYFGETSSSLDAGNHTFVLLDTISLSDKTNPNVSRVPRQFLDNFAMGSHPLPRILLTHVPLWRDPEQQTCGQLRESKEPFPIQKGHQYQTVIENDISQEILTKIQPEILFSGDDHDHCQISHSYPFQGKTKNAQEITVKSCAMNMGISRPAIQLLSLYNPSDLTMVNAGGEYASKTYQTELCYMPDPYKAIRMYLWGLLFSAAFIAYMHFFPKSFNNRVATIMNRVFTRPDGNTSDLPLPTSISKSKSKKSLTHSKYAVNDTRSIKQFLVNAIVLFVSVMPIFIYFYTVV
# B3: Met30p: yeast protein with five WD-repeats that binds certain promoter regions (protein, UniProt P39014 1-640, looked up)
# F-box protein MET30: MRRERQRMMSFEDKDKDDLDNSNSNNSSEMTDTAMMPPLKRLLITGSSDDLAQGSSGKKKMTMATRSPSSSPDLATNDSGTRVQPLPEYNFTKFCYRHNPDIQFSPTHTACYKQDLKRTQEINANIAKLPLQEQSDIHHIISKYSNSNDKIRKLILDGILSTSCFPQLSYISSLVTHMIKIDFISILPQELSLKILSYLDCQSLCNATRVCRKWQKLADDDRVWYHMCEQHIDRKCPNCGWGLPLLHMKRARIQQNSTGSSSNADIQTQTTRPWKVIYRERFKVESNWRKGHCRIQEFKGHMDGVLTLQFNYRLLFTGSYDSTIGIWDLFTGKLIRRLSGHSDGVKTLYFDDRKLITGSLDKTIRVWNYITGECISTYRGHSDSVLSVDSYQKVIVSGSADKTVKVWHVESRTCYTLRGHTEWVNCVKLHPKSFSCFSCSDDTTIRMWDIRTNSCLKVFRGHVGQVQKIIPLTIKDVENLATDNTSDGSSPQDDPTMTDGADESDTPSNEQETVLDENIPYPTHLLSCGLDNTIKLWDVKTGKCIRTQFGHVEGVWDIAADNFRIISGSHDGSIKVWDLQSGKCMHTFNGRRLQRETQHTQTQSLGDKVAPIACVCIGDSECFSGDEFGCVKMYKFDLND
# B4: Spt2p: transcription factor, negative regulator of HO gene transcription (protein, UniProt P06843 2-333, looked up)
# Protein SPT2: SFLSKLSQIRKSTTASKAQVQDPLPKKNDEEYSLLPKNYIRDEDPAVKRLKELRRQELLKNGALAKKSGVKRKRGTSSGSEKKKIERNDDDEGGLGIRFKRSIGASHAPLKPVVRKKPEPIKKMSFEELMKQAENNEKQPPKVKSSEPVTKERPHFNKPGFKSSKRPQKKASPGATLRGVSSGGNSIKSSDSPKPVKLNLPTNGFAQPNRRLKEKLESRKQKSRYQDDYDEEDNDMDDFIEDDEDEGYHSKSKHSNGPGYDRDEIWAMFNRGKKRSEYDYDELEDDDMEANEMEILEEEEMARKMARLEDKREEAWLKKHEEEKRRRKKGIR
# B5: xrs2p: yeast DNA-repair protein (protein, UniProt P33301 1-854, looked up)
# DNA repair protein XRS2: MWVVRYQNTLEDGSISFISCCLQAFKTYSIGRSSKNPLIIKNDKSISRQHITFKWEINNSSDLKHSSLCLVNKGKLTSLNKKFMKVGETFTINASDVLKSTIIELGTTPIRIEFEWINEVWNIPPHLTQFRTMLSEYGISTEISINDIPANLMISDYPKSEDNSIRELYALVSTIPMKKSRFLMELCNTLLPTSKTNLKFDEMWNDMISNPEYNVFDFDPNILLSKFMRLNNIRVLTTIKSEPRLSSLLRTFNINLFAFDNIDSLYKYVDSLEASTEYLILTTTDKKENGKILCTIKTMLTSIIDGTLSAVINMKGASSRTLDNGKFDQISEGMSTILKTSRAPEVEASPVVSKKRKLNRRRVLPLDSLDFFAGGLSTKTLSENRSLTDAKRLNCGAESKTVISSPNIAEADEKHAPFLQNALKPTEDIGKKSGHSSPGAIIVSSPNLGTVNTSEDSLDKSLQSHKLPQPSLPEVAGIGSQTISSNSADYETAAVNSMDDAEVTKNFRVNHHQNIEQPSKNIRKLSNYSREISSPLQENCKSPVKELSIKEKSGTPHAFVEAIQETKNREVKRVKSTIVELKDEELSEEAINQLKNLAIVEPSNNLLRKSFDSEGNKTSRTTEKWENSLMEPEWHKRKNFKTFVKVRPKSKAHKEEGKNNTQSSDFIRNAAFLITRNYVPLKKYSKKDTTTKWGTEENEDMFALTEMERFGSNTFMSDNINSNTIQKRSQALNRFTNEDSSNEGEEDSFSFSRCSGTAASVQPLKNKIFITDEDDLGDIDDKSDRLNHRENNRNLFVVKEMNLRPNLSEECSKQSRHSRSATSRSRGSFGASNNGDGDDDDDDGPKFTFKRRKG
# B6: Ils1p: isoleucyl-tRNA synthetase (protein, UniProt P09436 1-1072, looked up)
# Isoleucine--tRNA ligase, …: MSESNAHFSFPKEEEKVLSLWDEIDAFHTSLELTKDKPEFSFFDGPPFATGTPHYGHILASTIKDIVPRYATMTGHHVERRFGWDTHGVPIEHIIDKKLGITGKDDVFKYGLENYNNECRSIVMTYASDWRKTIGRLGRWIDFDNDYKTMYPSFMESTWWAFKQLHEKGQVYRGFKVMPYSTGLTTPLSNFEAQQNYKDVNDPAVTIGFNVIGQEKTQLVAWTTTPWTLPSNLSLCVNADFEYVKIYDETRDRYFILLESLIKTLYKKPKNEKYKIVEKIKGSDLVGLKYEPLFPYFAEQFHETAFRVISDDYVTSDSGTGIVHNAPAFGEEDNAACLKNGVISEDSVLPNAIDDLGRFTKDVPDFEGVYVKDADKLIIKYLTNTGNLLLASQIRHSYPFCWRSDTPLLYRSVPAWFVRVKNIVPQMLDSVMKSHWVPNTIKEKRFANWIANARDWNVSRNRYWGTPIPLWVSDDFEEVVCVGSIKELEELTGVRNITDLHRDVIDKLTIPSKQGKGDLKRIEEVFDCWFESGSMPYASQHYPFENTEKFDERVPANFISEGLDQTRGWFYTLAVLGTHLFGSVPYKNVIVSGIVLAADGRKMSKSLKNYPDPSIVLNKYGADALRLYLINSPVLKAESLKFKEEGVKEVVSKVLLPWWNSFKFLDGQIALLKKMSNIDFQYDDSVKSDNVMDRWILASMQSLVQFIHEEMGQYKLYTVVPKLLNFIDELTNWYIRFNRRRLKGENGVEDCLKALNSLFDALFTFVRAMAPFTPFLSESIYLRLKEYIPEAVLAKYGKDGRSVHFLSYPVVKKEYFDEAIETAVSRMQSVIDLGRNIREKKTISLKTPLKTLVILHSDESYLKDVEALKNYIIEELNVRDVVITSDEAKYGVEYKAVADWPVLGKKLKKDAKKVKDALPSVTSEQVREYLESGKLEVAGIELVKGDLNAIRGLPESAVQAGQETRTDQDVLIIMDTNIYSELKSEGLARELVNRIQKLRKKCGLEATDDVLVEYELVKDTIDFEAIVKEHFDMLSKTCRSDIAKYDGSKTDPIGDEEQSINDTIFKLKVFKL
# B7: Rad51p: yeast DNA-repair protein (protein, UniProt P25454 1-400, looked up)
# DNA repair protein RAD51: MSQVQEQHISESQLQYGNGSLMSTVPADLSQSVVDGNGNGSSEDIEATNGSGDGGGLQEQAEAQGEMEDEAYDEAALGSFVPIEKLQVNGITMADVKKLRESGLHTAEAVAYAPRKDLLEIKGISEAKADKLLNEAARLVPMGFVTAADFHMRRSELICLTTGSKNLDTLLGGGVETGSITELFGEFRTGKSQLCHTLAVTCQIPLDIGGGEGKCLYIDTEGTFRPVRLVSIAQRFGLDPDDALNNVAYARAYNADHQLRLLDAAAQMMSESRFSLIVVDSVMALYRTDFSGRGELSARQMHLAKFMRALQRLADQFGVAVVVTNQVVAQVDGGMAFNPDPKKPIGGNIMAHSSTTRLGFKKGKGCQRLCKVVDSPCLPEAECVFAIYEDGVGDPREEDE
# B8: Trm2p: yeast protein involved in DNA repair and RNA processing/modification (protein, UniProt P33753 1-639, looked up)
# tRNA …: MYEQFEFSFFFFENSDNKVKYKAHLISSIKRWSIITCMRCFWTVQKSIFKARFFACRNFVKKHNYKLISTMTGSTEMVPPTMKHTVDNKRLSSPLTDSGNRRTKKPKLRKYKAKKVETTSPMGVLEFEVNDLLKSQNLSREQVLNDVTSILNDKSSTDGPIVLQYHREVKNVKVLEITSNGNGLALIDNPVETEKKQVVIIPFGLPGDVVNIKVFKTHPYYVESDLLDVVEKSPMRRDDLIRDKYFGKSSGSQLEFLTYDDQLELKRKTIMNAYKFFAPRLVAEKLLPPFDTTVASPLQFGYRTKITPHFDMPKRKQKELSVRPPLGFGQKGRPQWRKDTLDIGGHGSILDIDECVLATEVLNKGLTNERRKFEQEFKNYKKGATILLRENTTILDPSKPTLEQLTEEASRDENGDISYVEVEDKKNNVRLAKTCVTNPRQIVTEYVDGYTFNFSAGEFFQNNNSILPIVTKYVRDNLQAPAKGDDNKTKFLVDAYCGSGLFSICSSKGVDKVIGVEISADSVSFAEKNAKANGVENCRFIVGKAEKLFESIDTPSENTSVILDPPRKGCDELFLKQLAAYNPAKIIYISCNVHSQARDVEYFLKETENGSAHQIESIRGFDFFPQTHHVESVCIMKRI
# Test system: total yeast genomic DNA
# Assay: Yeast proteome chip probed with labeled genomic DNA
# Type: binding
# Conditions: Cy3-labeled genomic DNA, visual inspection
# Description: Protein-DNA and protein-RNA interactions are important for many fundamental biological functions such as transcription regulation, chromosome segregation and maintenance, and RNA transport and processing (Williamson, 2000, Nat. Struct. Biol. 7(10):834-7). To explore the possibility of using a proteome chip to identify proteins that bind to DNA or RNA molecules, total yeast genomic DNA was labeled using Cy3-CTP and Klenow fragment, and polyA^+ was labeled using a biotinylated psoralen-derivative (31). Each probe was incubated with a different proteome chip (FIG. 3A).
# The protein-nucleic acid interaction was assayed as follows. The nucleic acid robes were labeled as described by Winzeler et al. (1999, Science 285:901). Blocked proteome chips were washed three to five times in PBS buffer, and the extra liquid on the glass surface was removed by tapping the slides vertically on a KIMWIPE™. 200 μl of labeled nuclei acid probe ([…] poly(dC/dG); 100-300 mM NaCl; 50-300 mM HEPES, pH 7.0-8.5; 10 mM MgCl2) was added to the proteome chip and immediately covered by a hydrophobic plastic cover slip (GRACE BIO-LABS™, USA). After trapped air bubbles were removed, the chip was incubated in a humidity chamber in the dark at room temperature (“RT”) for one hour. To remove the cover slip, the chip was immersed into large volume of PBS buffer(>50 ml), so that the slip would float away. The chip was then moved to a second PBS bath (>50 ml) and washed 3×5 min with shaking in the dark at RT. To completely remove the liquid on the chip, the chip was spun to dryness at 1500-2000 rpm for 5-10 min at RT.
row,Molecule,binding of genomic DNA probe
1,B1,tested positive
2,B2,identified
3,B3,identified
4,B4,identified
5,B5,identified
6,B6,identified
7,B7,identified
8,B8,identified
